Measured values taken from article PMC6535546, “Novel Carbapenemases FLC-1 and IMI-2 Encoded by an Enterobacter cloacae Complex Isolated from Food Products” (Antimicrobial Agents and Chemotherapy, 2019).

Legend:
[1] = tested on: C[C@@H](O)[C@H]1C(=O)N2C(C(=O)O)=C(S[C@@H]3CN[C@H](C(=O)Nc4cccc(C(=O)O)c4)C3)[C@H](C)[C@H]12; assay: cells, lysate or membranes; format: biochemical, Enterobacter cloacae; conditions: PBS, 0.01% Triton X-100, pH 7.4, 23°C, cytoplasmic fraction of E. coli LMG194 producing FLC-1
[2] = tested on: CO/N=C(\C(=O)N[C@@H]1C(=O)N2C(C(=O)O)=C(COC(C)=O)CS[C@H]12)c1csc(N)n1; assay: cells, lysate or membranes; format: biochemical, Enterobacter cloacae; conditions: PBS, 0.01% Triton X-100, pH 7.4, 23°C, cytoplasmic fraction of E. coli LMG194 producing FLC-1
[3] = tested on: C[C@@H](O)[C@H]1C(=O)N2C(C(=O)O)=C(S[C@@H]3CN[C@H](C(=O)N(C)C)C3)[C@H](C)[C@H]12; assay: cells, lysate or membranes; format: biochemical, Enterobacter cloacae; conditions: PBS, 0.01% Triton X-100, pH 7.4, 23°C, cytoplasmic fraction of E. coli LMG194 producing FLC-1
[4] = tested on: CC1(C)S[C@@H]2[C@H](NC(=O)[C@H](N)c3ccccc3)C(=O)N2[C@H]1C(=O)O; assay: cells, lysate or membranes; format: biochemical, Enterobacter cloacae; conditions: PBS, 0.01% Triton X-100, pH 7.4, 23°C, cytoplasmic fraction of E. coli LMG194 producing FLC-1
[5] = tested on: C[C@@H](O)[C@H]1C(=O)N2C(C(=O)O)=C(SCCN=CN)C[C@H]12; assay: cells, lysate or membranes; format: biochemical, Enterobacter cloacae; conditions: PBS, 0.01% Triton X-100, pH 7.4, 23°C, cytoplasmic fraction of E. coli LMG194 producing FLC-1
[6] = target: T1, FLC-1 (FRI-like carbapenemase-1) (Enterobacter cloacae, UniProt A0A2I5JVQ1); assay: nitrocefin hydrolysis inhibition; format: biochemical
T1 construct: gene bla; plasmid p3442-FLC-1 gene cloned in pBAD-FLC, expressed in E. coli LMG194; unpurified soluble (cytoplasmic) fraction; about 33 kDa
Protocol: nitrocefin hydrolysis inhibition on FLC-1 (FRI-like carbapenemase-1) | the inhibition of FLC-1 enzymatic activity by clavulanic acid was tested

T1 sequence (A0A2I5JVQ1 entry or part of it): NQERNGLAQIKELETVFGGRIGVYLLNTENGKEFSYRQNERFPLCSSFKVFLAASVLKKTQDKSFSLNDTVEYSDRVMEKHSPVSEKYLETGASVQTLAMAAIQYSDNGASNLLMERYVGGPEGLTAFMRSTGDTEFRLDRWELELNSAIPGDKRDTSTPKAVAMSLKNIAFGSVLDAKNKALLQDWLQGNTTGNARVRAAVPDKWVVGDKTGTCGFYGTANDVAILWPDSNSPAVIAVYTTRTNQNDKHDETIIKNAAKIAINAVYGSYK

Row | Compound | Km [1] [µM] | Km [2] [µM] | Km [3] [µM] | Km [4] | Km [5] [µM] | IC50 [6] [nM]
1 | FLC-1 (FRI-like carbapenemase-1) (Enterobacter cloacae) | 29.6 ± 11.7 | 377.1 ± 110.6 | 32.4 ± 9.3 | 1,649 ± 174.2 μM | 177.2 ± 12.5 | –
2 | O=C(O)[C@H]1/C(=C/CO)O[C@@H]2CC(=O)N21 [clavulanic acid] | – | – | – | – | – | 1970 ± 90
